Laboratory results published in patent US6989144.

Key:
[1] = molecular target: GPVI on baboon platelets (baboon); assay: flow cytometry, washed baboon platelets; negative control
[2] = molecular target: soluble human GPVI-Fc (extracellular domain of GPVI fused to Fc; hGPVI-human IgG1Fc) (human) (UniProt Q9HCN6); assay: 125I-convulxin binding to GPVI-Fc captured on 1P10.2, 10 µg/ml reagent; competitor ligand convulxin
[3] = molecular target: GPVI on baboon platelets (baboon); assay: flow cytometry, washed baboon platelets
[4] = molecular target: collagen type I; assay: cell-based or functional assay

soluble human GPVI-Fc (extracellular domain of GPVI fused to Fc; hGPVI-human IgG1Fc) (human), sequence (Q9HCN6 other isoform, or with tags, fused parts or gaps): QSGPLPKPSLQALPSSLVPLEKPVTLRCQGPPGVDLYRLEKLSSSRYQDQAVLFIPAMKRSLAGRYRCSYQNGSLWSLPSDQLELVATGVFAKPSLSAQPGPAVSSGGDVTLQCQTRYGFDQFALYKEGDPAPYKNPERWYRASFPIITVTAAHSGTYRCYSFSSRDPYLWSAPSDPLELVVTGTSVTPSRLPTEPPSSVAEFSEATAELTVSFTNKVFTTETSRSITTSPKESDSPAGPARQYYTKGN

Baboon fluorescence intensity [1] | Baboon platelets % positive [1] [%] | Substance | also measured
9 | 6.8 | monoclonal antibody 7H14.1 (negative control) | 
10 | 9 | monoclonal antibody 7120.2 (negative control) | 
 |  | mouse monoclonal antibody produced by hybridoma cell line 9012.2 | % blocking of GPVI-Fc binding to convulxin [2]: > 25%; Baboon fluorescence intensity [3]: 18; Baboon platelets % positive [3]: 33.8%
 |  | recombinant human soluble GPVI:Fc (rhusGPVI:Fc) (from UniProt Q9HCN6 21-269) (Fc fusion) | collagen-induced platelet aggregation and secretion [4]: 10 fold
